# According to the supplement of paper PMC10567573:
# B1: TRIM35 (parent)
# chain: PTCPVCKDRASPADLRTNHTLNNL
# B2: RSPH3 (parent)
# chain: QRLEEQERRHREEKERRKKQQWEI
# Variants of: B1
# Experiment: protein stability index of a GFP-peptide fusion (GPS, HEK-293T) (PSI 1-6); higher = more stable
# Details: c terminus: a fixed tail appended
# 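Also: lentivirally expressed fusions sorted by FACS into six bins by GFP to DsRed ratio, PSI derived from sequencing read proportions per bin multiplied by bin number.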
row,Variant,protein stability index
1,PTCPVCKDRASPADLETNHTLNNL,4.09
2,PTCPVCKDRASPADLFTNHTLNNL,2.42
3,PTCPVCKDRASPADLGTNHTLNNL,2.63
4,PTCPVCKDRASPADLHTNHTLNNL,3.17
5,PTCPVCKDRASPADLITNHTLNNL,2.33
6,PTCPVCKDRASPADLKTNHTLNNL,2.7
7,PTCPVCKDRASPADLLTNHTLNNL,3.04
8,PTCPVCKDRASPADLMTNHTLNNL,2.72
9,PTCPVCKDRASPADLNTNHTLNNL,3.32
10,PTCPVCKDRASPADLPTNHTLNNL,3.11
11,PTCPVCKDRASPADLQTNHTLNNL,3.39
12,PTCPVCKDRASPADLSTNHTLNNL,3.54
13,PTCPVCKDRASPADLTTNHTLNNL,2.95
14,PTCPVCKDRASPADLVTNHTLNNL,3.07
15,PTCPVCKDRASPADLWTNHTLNNL,2.01
16,PTCPVCKDRASPADLYTNHTLNNL,2.42
17,PTCPVCKDRASPADLRANHTLNNL,2.75
18,PTCPVCKDRASPADLRCNHTLNNL,4.21
19,PTCPVCKDRASPADLRDNHTLNNL,3.36
20,PTCPVCKDRASPADLRENHTLNNL,3.29
21,PTCPVCKDRASPADLRFNHTLNNL,2.52
22,PTCPVCKDRASPADLRGNHTLNNL,3.18
23,PTCPVCKDRASPADLRHNHTLNNL,3.66
24,PTCPVCKDRASPADLRINHTLNNL,3.07

row,Variant,protein stability index
1,PTCPVCKDRASPADLRKNHTLNNL,3.02
2,PTCPVCKDRASPADLRLNHTLNNL,2.58
3,PTCPVCKDRASPADLRMNHTLNNL,2.67
4,PTCPVCKDRASPADLRNNHTLNNL,3.09
5,PTCPVCKDRASPADLRPNHTLNNL,3.34
6,PTCPVCKDRASPADLRQNHTLNNL,3.28
7,PTCPVCKDRASPADLRRNHTLNNL,3.1
8,PTCPVCKDRASPADLRSNHTLNNL,3.13
9,PTCPVCKDRASPADLRVNHTLNNL,2.6
10,PTCPVCKDRASPADLRWNHTLNNL,2.35
11,PTCPVCKDRASPADLRYNHTLNNL,2.6
12,PTCPVCKDRASPADLRTAHTLNNL,2.67
13,PTCPVCKDRASPADLRTCHTLNNL,3.6
14,PTCPVCKDRASPADLRTDHTLNNL,3.4
15,PTCPVCKDRASPADLRTEHTLNNL,3.75
16,PTCPVCKDRASPADLRTFHTLNNL,2.53
17,PTCPVCKDRASPADLRTGHTLNNL,3.03
18,PTCPVCKDRASPADLRTHHTLNNL,2.94
19,PTCPVCKDRASPADLRTIHTLNNL,2.31
20,PTCPVCKDRASPADLRTKHTLNNL,2.48
21,PTCPVCKDRASPADLRTLHTLNNL,2.6
22,PTCPVCKDRASPADLRTMHTLNNL,2.64
23,PTCPVCKDRASPADLRTPHTLNNL,2.83
24,PTCPVCKDRASPADLRTQHTLNNL,3.3

row,Variant,protein stability index
1,PTCPVCKDRASPADLRTRHTLNNL,2.71
2,PTCPVCKDRASPADLRTSHTLNNL,2.81
3,PTCPVCKDRASPADLRTTHTLNNL,2.86
4,PTCPVCKDRASPADLRTVHTLNNL,2.62
5,PTCPVCKDRASPADLRTWHTLNNL,2.16
6,PTCPVCKDRASPADLRTYHTLNNL,2.76
7,PTCPVCKDRASPADLRTNATLNNL,2.86
8,PTCPVCKDRASPADLRTNCTLNNL,2.95
9,PTCPVCKDRASPADLRTNDTLNNL,3.61
10,PTCPVCKDRASPADLRTNETLNNL,3.79
11,PTCPVCKDRASPADLRTNFTLNNL,2.4
12,PTCPVCKDRASPADLRTNGTLNNL,3.33
13,PTCPVCKDRASPADLRTNITLNNL,2.5
14,PTCPVCKDRASPADLRTNKTLNNL,3.21
15,PTCPVCKDRASPADLRTNLTLNNL,3.02
16,PTCPVCKDRASPADLRTNMTLNNL,3.09
17,PTCPVCKDRASPADLRTNNTLNNL,3.09
18,PTCPVCKDRASPADLRTNPTLNNL,3.19
19,PTCPVCKDRASPADLRTNQTLNNL,3.28
20,PTCPVCKDRASPADLRTNRTLNNL,3.14
21,PTCPVCKDRASPADLRTNSTLNNL,3.09
22,PTCPVCKDRASPADLRTNTTLNNL,2.81
23,PTCPVCKDRASPADLRTNVTLNNL,3.04
24,PTCPVCKDRASPADLRTNWTLNNL,2.86

row,Variant,protein stability index
1,PTCPVCKDRASPADLRTNYTLNNL,3.13
2,PTCPVCKDRASPADLRTNHALNNL,3.11
3,PTCPVCKDRASPADLRTNHCLNNL,3
4,PTCPVCKDRASPADLRTNHDLNNL,3.76
5,PTCPVCKDRASPADLRTNHELNNL,3.92
6,PTCPVCKDRASPADLRTNHFLNNL,2.59
7,PTCPVCKDRASPADLRTNHGLNNL,2.76
8,PTCPVCKDRASPADLRTNHHLNNL,3.03
9,PTCPVCKDRASPADLRTNHILNNL,2.76
10,PTCPVCKDRASPADLRTNHKLNNL,2.81
11,PTCPVCKDRASPADLRTNHLLNNL,2.77
12,PTCPVCKDRASPADLRTNHMLNNL,2.67
13,PTCPVCKDRASPADLRTNHNLNNL,3
14,PTCPVCKDRASPADLRTNHPLNNL,3.23
15,PTCPVCKDRASPADLRTNHQLNNL,3.06
16,PTCPVCKDRASPADLRTNHRLNNL,2.93
17,PTCPVCKDRASPADLRTNHSLNNL,2.7
18,PTCPVCKDRASPADLRTNHVLNNL,3.19
19,PTCPVCKDRASPADLRTNHWLNNL,2.09
20,PTCPVCKDRASPADLRTNHYLNNL,2.74
21,PTCPVCKDRASPADLRTNHTANNL,3.22
22,PTCPVCKDRASPADLRTNHTCNNL,4.64
23,PTCPVCKDRASPADLRTNHTDNNL,3.99
24,PTCPVCKDRASPADLRTNHTENNL,3.59

row,Variant,protein stability index
1,PTCPVCKDRASPADLRTNHTFNNL,2.62
2,PTCPVCKDRASPADLRTNHTGNNL,3.3
3,PTCPVCKDRASPADLRTNHTHNNL,3.66
4,PTCPVCKDRASPADLRTNHTINNL,2.61
5,PTCPVCKDRASPADLRTNHTKNNL,3.13
6,PTCPVCKDRASPADLRTNHTMNNL,3.18
7,PTCPVCKDRASPADLRTNHTNNNL,3.27
8,PTCPVCKDRASPADLRTNHTPNNL,3.39
9,PTCPVCKDRASPADLRTNHTQNNL,3.52
10,PTCPVCKDRASPADLRTNHTRNNL,2.55
11,PTCPVCKDRASPADLRTNHTSNNL,3.42
12,PTCPVCKDRASPADLRTNHTTNNL,3.07
13,PTCPVCKDRASPADLRTNHTVNNL,2.96
14,PTCPVCKDRASPADLRTNHTWNNL,2.18
15,PTCPVCKDRASPADLRTNHTYNNL,2.76
16,PTCPVCKDRASPADLRTNHTLANL,3.06
17,PTCPVCKDRASPADLRTNHTLCNL,4.13
18,PTCPVCKDRASPADLRTNHTLDNL,4.1
19,PTCPVCKDRASPADLRTNHTLENL,3.73
20,PTCPVCKDRASPADLRTNHTLFNL,2.13
21,PTCPVCKDRASPADLRTNHTLGNL,3.39
22,PTCPVCKDRASPADLRTNHTLHNL,2.9
23,PTCPVCKDRASPADLRTNHTLINL,2.65
24,PTCPVCKDRASPADLRTNHTLKNL,2.87

row,Variant,protein stability index
1,PTCPVCKDRASPADLRTNHTLLNL,2.56
2,PTCPVCKDRASPADLRTNHTLMNL,2.67
3,PTCPVCKDRASPADLRTNHTLPNL,2.44
4,PTCPVCKDRASPADLRTNHTLQNL,3.63
5,PTCPVCKDRASPADLRTNHTLRNL,1.98
6,PTCPVCKDRASPADLRTNHTLSNL,2.99
7,PTCPVCKDRASPADLRTNHTLTNL,2.76
8,PTCPVCKDRASPADLRTNHTLVNL,2.21
9,PTCPVCKDRASPADLRTNHTLWNL,2.02
10,PTCPVCKDRASPADLRTNHTLYNL,2.38
11,PTCPVCKDRASPADLRTNHTLNAL,2.73
12,PTCPVCKDRASPADLRTNHTLNCL,4.21
13,PTCPVCKDRASPADLRTNHTLNDL,3.81
14,PTCPVCKDRASPADLRTNHTLNEL,3.48
15,PTCPVCKDRASPADLRTNHTLNFL,2.27
16,PTCPVCKDRASPADLRTNHTLNGL,2.92
17,PTCPVCKDRASPADLRTNHTLNHL,3.47
18,PTCPVCKDRASPADLRTNHTLNIL,2.1
19,PTCPVCKDRASPADLRTNHTLNKL,3.12
20,PTCPVCKDRASPADLRTNHTLNLL,2.28
21,PTCPVCKDRASPADLRTNHTLNML,2.47
22,PTCPVCKDRASPADLRTNHTLNPL,2.76
23,PTCPVCKDRASPADLRTNHTLNQL,3.1
24,PTCPVCKDRASPADLRTNHTLNRL,2.37

row,Variant,protein stability index
1,PTCPVCKDRASPADLRTNHTLNSL,3.18
2,PTCPVCKDRASPADLRTNHTLNTL,2.58
3,PTCPVCKDRASPADLRTNHTLNVL,3.06
4,PTCPVCKDRASPADLRTNHTLNWL,2.09
5,PTCPVCKDRASPADLRTNHTLNYL,1.88
6,PTCPVCKDRASPADLRTNHTLNNA,3.89
7,PTCPVCKDRASPADLRTNHTLNNC,3.94
8,PTCPVCKDRASPADLRTNHTLNND,4.37
9,PTCPVCKDRASPADLRTNHTLNNE,4.03
10,PTCPVCKDRASPADLRTNHTLNNF,3.32
11,PTCPVCKDRASPADLRTNHTLNNG,3.83
12,PTCPVCKDRASPADLRTNHTLNNH,3.58
13,PTCPVCKDRASPADLRTNHTLNNI,3.5
14,PTCPVCKDRASPADLRTNHTLNNK,3.37
15,PTCPVCKDRASPADLRTNHTLNNM,2.8
16,PTCPVCKDRASPADLRTNHTLNNN,3.91
17,PTCPVCKDRASPADLRTNHTLNNP,3.83
18,PTCPVCKDRASPADLRTNHTLNNQ,3.36
19,PTCPVCKDRASPADLRTNHTLNNR,1.82
20,PTCPVCKDRASPADLRTNHTLNNS,3.79
21,PTCPVCKDRASPADLRTNHTLNNT,3.62
22,PTCPVCKDRASPADLRTNHTLNNV,3.56
23,PTCPVCKDRASPADLRTNHTLNNW,3
24,PTCPVCKDRASPADLRTNHTLNNY,2.76

# Variants of: B2
# Experiment: as above
# Details: c terminus: a fixed tail appended
row,Variant,protein stability index
1,ARLEEQERRHREEKERRKKQQWEI,4.69
2,CRLEEQERRHREEKERRKKQQWEI,3.83
3,DRLEEQERRHREEKERRKKQQWEI,4.59
4,ERLEEQERRHREEKERRKKQQWEI,4.86
5,FRLEEQERRHREEKERRKKQQWEI,4.28
6,GRLEEQERRHREEKERRKKQQWEI,4.83
7,HRLEEQERRHREEKERRKKQQWEI,5.33
8,IRLEEQERRHREEKERRKKQQWEI,4.4
9,KRLEEQERRHREEKERRKKQQWEI,4.29
10,LRLEEQERRHREEKERRKKQQWEI,4.35
11,MRLEEQERRHREEKERRKKQQWEI,4.76
12,NRLEEQERRHREEKERRKKQQWEI,4.5
13,PRLEEQERRHREEKERRKKQQWEI,5.21
14,RRLEEQERRHREEKERRKKQQWEI,4.49
15,SRLEEQERRHREEKERRKKQQWEI,4.66
16,TRLEEQERRHREEKERRKKQQWEI,4.78
17,VRLEEQERRHREEKERRKKQQWEI,4.81
18,WRLEEQERRHREEKERRKKQQWEI,4.13
19,YRLEEQERRHREEKERRKKQQWEI,4.42
20,QALEEQERRHREEKERRKKQQWEI,4.57
